Earlier results on 1 substance are cited in publication PMC7226344.

In series [1] the target is Cav3.2 (Homo sapiens) (UniProt O95180).
For series [2], the target named is Cav3.1 (Rattus norvegicus) (UniProt O54898).
Chain of UniProt O54898 (O54898 whole entry): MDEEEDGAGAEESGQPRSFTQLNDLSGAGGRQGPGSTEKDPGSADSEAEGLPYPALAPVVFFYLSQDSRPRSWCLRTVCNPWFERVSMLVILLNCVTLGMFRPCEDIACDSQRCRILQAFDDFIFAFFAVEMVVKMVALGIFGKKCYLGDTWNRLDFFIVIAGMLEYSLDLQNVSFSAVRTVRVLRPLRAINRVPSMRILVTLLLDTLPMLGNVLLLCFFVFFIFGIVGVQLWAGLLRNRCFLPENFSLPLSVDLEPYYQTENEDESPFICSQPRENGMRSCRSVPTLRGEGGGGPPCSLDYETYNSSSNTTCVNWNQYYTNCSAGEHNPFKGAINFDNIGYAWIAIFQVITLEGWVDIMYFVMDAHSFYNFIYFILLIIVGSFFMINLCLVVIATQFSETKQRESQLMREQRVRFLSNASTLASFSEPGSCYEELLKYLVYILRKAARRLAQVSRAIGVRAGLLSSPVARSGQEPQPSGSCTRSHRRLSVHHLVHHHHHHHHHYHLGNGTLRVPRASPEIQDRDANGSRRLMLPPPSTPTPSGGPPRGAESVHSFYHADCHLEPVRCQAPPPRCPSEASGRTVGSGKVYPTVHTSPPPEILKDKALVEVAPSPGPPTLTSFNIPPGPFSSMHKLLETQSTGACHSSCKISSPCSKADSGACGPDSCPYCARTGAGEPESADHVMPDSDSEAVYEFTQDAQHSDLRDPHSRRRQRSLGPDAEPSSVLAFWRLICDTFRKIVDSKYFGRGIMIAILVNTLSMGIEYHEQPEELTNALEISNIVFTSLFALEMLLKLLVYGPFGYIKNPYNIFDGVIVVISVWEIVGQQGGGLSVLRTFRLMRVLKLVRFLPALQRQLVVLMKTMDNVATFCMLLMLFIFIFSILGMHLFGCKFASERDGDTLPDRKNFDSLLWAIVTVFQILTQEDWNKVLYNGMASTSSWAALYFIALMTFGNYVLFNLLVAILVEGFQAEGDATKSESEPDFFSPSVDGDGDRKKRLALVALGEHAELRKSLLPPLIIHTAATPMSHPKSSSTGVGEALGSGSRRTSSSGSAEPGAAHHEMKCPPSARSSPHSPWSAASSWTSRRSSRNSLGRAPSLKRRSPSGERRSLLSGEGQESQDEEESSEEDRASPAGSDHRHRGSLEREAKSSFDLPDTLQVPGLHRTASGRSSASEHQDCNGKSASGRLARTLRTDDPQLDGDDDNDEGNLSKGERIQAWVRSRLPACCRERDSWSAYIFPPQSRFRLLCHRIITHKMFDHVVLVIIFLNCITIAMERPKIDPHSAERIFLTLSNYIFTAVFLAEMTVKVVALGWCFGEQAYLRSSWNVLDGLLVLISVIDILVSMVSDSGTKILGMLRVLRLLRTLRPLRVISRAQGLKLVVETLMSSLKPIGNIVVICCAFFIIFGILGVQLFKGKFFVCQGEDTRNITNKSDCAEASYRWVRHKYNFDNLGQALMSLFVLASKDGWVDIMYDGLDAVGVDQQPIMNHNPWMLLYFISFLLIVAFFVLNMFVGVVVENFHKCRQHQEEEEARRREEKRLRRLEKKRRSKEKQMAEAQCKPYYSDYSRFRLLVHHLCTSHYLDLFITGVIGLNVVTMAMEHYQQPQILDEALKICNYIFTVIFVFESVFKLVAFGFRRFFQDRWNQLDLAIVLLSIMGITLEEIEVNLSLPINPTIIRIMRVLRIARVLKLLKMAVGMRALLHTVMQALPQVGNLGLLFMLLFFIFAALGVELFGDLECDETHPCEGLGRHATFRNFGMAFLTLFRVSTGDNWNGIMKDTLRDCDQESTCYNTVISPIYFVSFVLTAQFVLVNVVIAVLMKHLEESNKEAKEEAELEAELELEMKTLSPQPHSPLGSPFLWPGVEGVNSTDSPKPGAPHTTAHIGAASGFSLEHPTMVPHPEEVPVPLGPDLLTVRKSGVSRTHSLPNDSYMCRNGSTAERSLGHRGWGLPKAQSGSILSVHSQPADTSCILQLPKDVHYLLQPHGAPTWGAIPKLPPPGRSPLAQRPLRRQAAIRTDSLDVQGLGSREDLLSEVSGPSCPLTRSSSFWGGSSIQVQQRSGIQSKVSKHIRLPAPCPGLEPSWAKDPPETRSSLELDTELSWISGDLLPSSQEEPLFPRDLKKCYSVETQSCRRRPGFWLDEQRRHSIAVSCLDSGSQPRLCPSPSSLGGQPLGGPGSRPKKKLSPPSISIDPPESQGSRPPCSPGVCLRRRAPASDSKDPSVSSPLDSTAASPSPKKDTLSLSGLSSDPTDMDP

Chain of UniProt O95180 (O95180 whole entry): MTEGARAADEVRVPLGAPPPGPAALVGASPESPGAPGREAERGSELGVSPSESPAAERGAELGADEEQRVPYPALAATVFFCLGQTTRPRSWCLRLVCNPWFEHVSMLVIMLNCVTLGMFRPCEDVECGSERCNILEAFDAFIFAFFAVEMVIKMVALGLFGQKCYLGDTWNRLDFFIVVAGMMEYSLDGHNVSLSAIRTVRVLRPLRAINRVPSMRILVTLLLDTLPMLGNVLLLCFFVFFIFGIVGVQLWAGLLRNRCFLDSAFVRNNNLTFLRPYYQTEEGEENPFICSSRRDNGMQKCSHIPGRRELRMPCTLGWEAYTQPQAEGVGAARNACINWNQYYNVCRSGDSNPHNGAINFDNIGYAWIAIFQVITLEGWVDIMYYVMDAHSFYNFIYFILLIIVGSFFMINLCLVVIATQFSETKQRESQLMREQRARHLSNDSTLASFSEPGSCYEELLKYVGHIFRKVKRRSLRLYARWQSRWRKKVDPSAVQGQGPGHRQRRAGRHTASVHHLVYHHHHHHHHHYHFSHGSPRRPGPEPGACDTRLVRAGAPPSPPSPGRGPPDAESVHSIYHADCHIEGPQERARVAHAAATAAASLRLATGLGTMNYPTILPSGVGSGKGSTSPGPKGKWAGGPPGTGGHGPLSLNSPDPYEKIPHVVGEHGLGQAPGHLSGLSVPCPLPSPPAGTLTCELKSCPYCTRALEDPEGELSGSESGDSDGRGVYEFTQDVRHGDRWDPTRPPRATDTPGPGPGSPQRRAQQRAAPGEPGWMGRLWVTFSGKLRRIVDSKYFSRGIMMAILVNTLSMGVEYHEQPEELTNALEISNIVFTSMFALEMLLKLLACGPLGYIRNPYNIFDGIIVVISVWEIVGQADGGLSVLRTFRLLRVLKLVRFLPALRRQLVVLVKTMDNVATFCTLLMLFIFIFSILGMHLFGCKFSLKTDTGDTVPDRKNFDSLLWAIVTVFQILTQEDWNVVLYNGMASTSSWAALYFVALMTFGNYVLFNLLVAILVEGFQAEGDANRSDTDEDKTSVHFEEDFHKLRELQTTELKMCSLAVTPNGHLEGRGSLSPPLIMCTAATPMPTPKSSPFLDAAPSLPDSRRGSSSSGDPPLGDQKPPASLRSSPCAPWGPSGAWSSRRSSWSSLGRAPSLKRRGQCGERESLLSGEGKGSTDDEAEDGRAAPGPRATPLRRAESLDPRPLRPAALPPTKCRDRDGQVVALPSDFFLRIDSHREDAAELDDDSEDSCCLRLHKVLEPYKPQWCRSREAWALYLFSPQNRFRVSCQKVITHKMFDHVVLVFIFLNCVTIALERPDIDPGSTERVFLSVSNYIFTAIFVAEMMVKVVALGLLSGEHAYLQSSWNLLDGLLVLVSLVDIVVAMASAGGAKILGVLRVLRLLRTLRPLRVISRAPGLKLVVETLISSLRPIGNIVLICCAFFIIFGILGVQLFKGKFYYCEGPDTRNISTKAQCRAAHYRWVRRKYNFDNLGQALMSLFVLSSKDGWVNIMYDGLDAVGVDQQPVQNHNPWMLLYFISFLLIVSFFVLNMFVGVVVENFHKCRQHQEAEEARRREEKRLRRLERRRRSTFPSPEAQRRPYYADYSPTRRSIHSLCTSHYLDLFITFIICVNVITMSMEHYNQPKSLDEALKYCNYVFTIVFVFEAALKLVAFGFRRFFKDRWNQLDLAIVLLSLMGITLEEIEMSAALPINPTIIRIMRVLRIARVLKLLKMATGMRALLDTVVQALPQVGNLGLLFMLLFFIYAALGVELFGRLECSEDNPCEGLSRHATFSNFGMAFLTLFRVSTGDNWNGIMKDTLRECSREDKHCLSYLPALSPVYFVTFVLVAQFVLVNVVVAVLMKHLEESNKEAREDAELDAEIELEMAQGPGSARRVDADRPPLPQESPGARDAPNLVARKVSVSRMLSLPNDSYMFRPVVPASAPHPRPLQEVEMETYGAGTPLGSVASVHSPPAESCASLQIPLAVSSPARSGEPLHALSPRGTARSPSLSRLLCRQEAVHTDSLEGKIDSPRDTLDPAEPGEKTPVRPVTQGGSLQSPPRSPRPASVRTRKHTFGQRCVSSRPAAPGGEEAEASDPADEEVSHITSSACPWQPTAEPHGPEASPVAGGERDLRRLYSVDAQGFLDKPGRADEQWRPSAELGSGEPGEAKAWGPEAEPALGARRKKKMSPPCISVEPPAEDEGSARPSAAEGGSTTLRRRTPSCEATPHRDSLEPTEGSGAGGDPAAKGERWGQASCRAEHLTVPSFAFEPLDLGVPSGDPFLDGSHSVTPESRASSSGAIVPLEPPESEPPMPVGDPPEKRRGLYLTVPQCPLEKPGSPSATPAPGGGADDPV

With kurtoxin (from UniProt P58910), the Kd in series [1] was 0.061 µM; in series [2] it was 0.015 µM.

A word on the Kd: it is the constant that tells how readily two partners part at equilibrium.
